Paper PMC10803776, “Structure of the M. tuberculosis DnaK−GrpE complex reveals how key DnaK roles are controlled” (Nature Communications, 2024)
Ends that are not written are not given here.

What was measured:
[1] = molecular target: T1, Mycobacterium tuberculosis DnaK, wild type, full length (Mycobacterium tuberculosis, UniProt P9WMJ9 1-625); experiment: fluorescence polarisation; direct binding of F-NR to DnaK in the presence of ADP or without nucleotide; conditions: both partners purified
T1 construct: DnaK (Hsp70 chaperone) of Mycobacterium tuberculosis, full length; also called Mtb DnaK; WT DnaK

[2] = molecular target: T2, Mycobacterium tuberculosis DnaK, full length, wild type (Mycobacterium tuberculosis, UniProt P9WMJ9 1-625); experiment: ITC; conditions: both partners purified
T2 construct: DnaK (Hsp70 chaperone) of Mycobacterium tuberculosis, full length; also called Mtb DnaK; WT DnaK

[3] = molecular target: T3, Mycobacterium tuberculosis DnaK Mut-1 (Y106A, L107A) (Mycobacterium tuberculosis, UniProt P9WMJ9 1-625, Y106A | L107A); experiment: ITC; conditions: both partners purified
T3 construct: DnaK of Mycobacterium tuberculosis, full length, with two alanine substitutions in NBD subdomain IA

[4] = molecular target: the molecule itself; experiment: cryo-EM structure; DnaK 2 μM, DnaJ2 4 μM, GrpE 4 μM, telaprevir 200 μM in 25 mM Tris pH 8.0, 40 mM NaCl, 10 mM MgCl2; no nucleotide; 3.7 Å map
[5] = molecular target: T1, Mycobacterium tuberculosis DnaK, wild …; experiment: SEC-MALS; conditions: both partners purified

B1: N-terminal fluorescein-labeled NR peptide (NRLLLTG) (peptide)
peptide: fluorescein-NRLLLTG
notes: model peptide substrate of DnaK; also called F-NR; fluorescently tagged NR; source: bought: PEPTIDE 2.0 (purity >95%)
B1: binds [1].

B2: Mycobacterium tuberculosis GrpE, full length, wild type (natural protein)
chain: MTDGNQKPDGNSGEQVTVTDKRRIDPETGEVRHVPPGDMPGGTAAADAAHTEDKVAELTADLQRVQADFANYRKRALRDQQAAADRAKASVVSQLLGVLDDLERARKHGDLESGPLKSVADKLDSALTGLGLVAFGAEGEDFDPVLHEAVQHEGDGGQGSKPVIGTVMRQGYQLGEQVLRHALVGVVDTVVVDAAELESVDDGTAVADTAENDQADQGNSADTSGEQAESEPSGS
notes: GrpE (nucleotide exchange factor) of Mycobacterium tuberculosis, full length; also called Mtb GrpE; WT GrpE
In the case of B2, the Kd [2] is reported as 0.24 µM, the “stoichiometry N” value [2] is reported as 0.69 and the Kd [3] is reported as 1.07 µM. The “stoichiometry N” value [3] was 0.13.

B3: Mycobacterium tuberculosis GrpE, wild type, full length (natural protein)
chain: B2 chain
notes: GrpE (nucleotide exchange factor) of Mycobacterium tuberculosis, full length, 235 residues (C-terminal residues printed as aa 188-235); also called Mtb GrpE; WT GrpE
With B3 the “stoichiometry N” value [4] was 2 and the “stoichiometry N” value [5] was 2 GrpE per DnaK.
